Where “and” joins values, the source holds several entries; their conditions need not be identical. Equal values may be shown once.
B1: Ribonuclease, P00648 (parent)
chain: MMKMEGIALKKRLSWISVCLLVLVSAAGMLFSTAAKTETSSHKAHTEAQVINTFDGVADYLQTYHKLPDNYITKSEAQALGWVASKGNLADVAPGKSIGGDIFSNREGKLPGKSGRTWREADINYTSGFRNSDRILYSSDWLIYKTTDHYQTFTKIR
B2: Guanyl-specific ribonuclease T1, P00651 (parent)
chain: MMYSKLLTLTTLLLPTALALPSLVERACDYTCGSNCYSSSDVSTAQAAGYQLHEDGETVGSNSYPHKYNNYEGFDFSVSSPYYEWPILSSGDVYSGGSPGADRVVFNENNQLAGVITHTGASGNNFVECT
B3: Superoxide dismutase [Cu-Zn], P00445 (parent)
chain: MVQAVAVLKGDAGVSGVVKFEQASESEPTTVSYEIAGNSPNAERGFHIHEFGDATNGCVSAGPHFNPFKKTHGAPTDEVRHVGDMGNVKTDENGVAKGSFKDSLIKLIGPTSVVGRSVVIHAGQDDLGKGDTEESLKTGNAGPRPACGVIGLTN
B4: Phosphoglycerate kinase, P18912 (parent)
chain: MNKKTIRDVDVRGKRVFCRVDFNVPMEQGAITDDTRIRAALPTIRYLIEHGAKVILASHLGRPKGKVVEELRLDAVAKRLGELLERPVAKTNEAVGDEVKAAVDRLNEGDVLLLENVRFYPGEEKNDPELAKAFAELADLYVNDAFGAAHRAHASTEGIAHYLPAVAGFLMEKELEVLGKALSNPDRPFTAIIGGAKVKDKIGVIDNLLEKVDNLIIGGGLAYTFVKALGHDVGKSLLEEDKIELAKSFMEKAKEKGVRFYMPVDVVVADRFANDANTKVVPIDAIPADWSALDIGPKTRELYRDVIRESKLVVWNGPMGVFEMDAFAHGTKAIAEALAEALDTYSVIGGGDSAAAVEKFGLADKMDHISTGGGASLEFMEGKQLPGVVALEDK
B5: DNA-Binding protein, P69542 (parent)
chain: MIKVEIKPSQAQFTTRSGVSRQGKPYSLNEQLCYVDLGNEYPVLVKITLDEGQPAYAPGLYTVHLSSFKVGQFGSLMIDRLRLVPAK
B6: Collagen alpha-1(XVIII) chain, P39060 (parent)
chain: MAPYPCGCHILLLLFCCLAAARANLLNLNWLWFNNEDTSHAATTIPEPQGPLPVQPTADTTTHVTPRNGSTEPATAPGSPEPPSELLEDGQDTPTSAESPDAPEENIAGVGAEILNVAKGIRSFVQLWNDTVPTESLARAETLVLETPVGPLALAGPSSTPQENGTTLWPSRGIPSSPGAHTTEAGTLPAPTPSPPSLGRPWAPLTGPSVPPPSSGRASLSSLLGGAPPWGSLQDPDSQGLSPAAAAPSQQLQRPDVRLRTPLLHPLVMGSLGKHAAPSAFSSGLPGALSQVAVTTLTRDSGAWVSHVANSVGPGLANNSALLGADPEAPAGRCLPLPPSLPVCGHLGISRFWLPNHLHHESGEQVRAGARAWGGLLQTHCHPFLAWFFCLLLVPPCGSVPPPAPPPCCQFCEALQDACWSRLGGGRLPVACASLPTQEDGYCVLIGPAAERISEEVGLLQLLGDPPPQQVTQTDDPDVGLAYVFGPDANSGQVARYHFPSLFFRDFSLLFHIRPATEGPGVLFAITDSAQAMVLLGVKLSGVQDGHQDISLLYTEPGAGQTHTAASFRLPAFVGQWTHLALSVAGGFVALYVDCEEFQRMPLARSSRGLELEPGAGLFVAQAGGADPDKFQGVIAELKVRRDPQVSPMHCLDEEGDDSDGASGDSGSGLGDARELLREETGAALKPRLPAPPPVTTPPLAGGSSTEDSRSEEVEEQTTVASLGAQTLPGSDSVSTWDGSVRTPGGRVKEGGLKGQKGEPGVPGPPGRAGPPGSPCLPGPPGLPCPVSPLGPAGPALQTVPGPQGPPGPPGRDGTPGRDGEPGDPGEDGKPGDTGPQGFPGTPGDVGPKGDKGDPGVGERGPPGPQGPPGPPGPSFRHDKLTFIDMEGSGFGGDLEALRGPRGFPGPPGPPGVPGLPGEPGRFGVNSSDVPGPAGLPGVPGREGPPGFPGLPGPPGPPGREGPPGRTGQKGSLGEAGAPGHKGSKGAPGPAGARGESGLAGAPGPAGPPGPPGPPGPPGPGLPAGFDDMEGSGGPFWSTARSADGPQGPPGLPGLKGDPGVPGLPGAKGEVGADGVPGFPGLPGREGIAGPQGPKGDRGSRGEKGDPGKDGVGQPGLPGPPGPPGPVVYVSEQDGSVLSVPGPEGRPGFAGFPGPAGPKGNLGSKGERGSPGPKGEKGEPGSIFSPDGGALGPAQKGAKGEPGFRGPPGPYGRPGYKGEIGFPGRPGRPGMNGLKGEKGEPGDASLGFGMRGMPGPPGPPGPPGPPGTPVYDSNVFAESSRPGPPGLPGNQGPPGPKGAKGEVGPPGPPGQFPFDFLQLEAEMKGEKGDRGDAGQKGERGEPGGGGFFGSSLPGPPGPPGPPGPRGYPGIPGPKGESIRGQPGPPGPQGPPGIGYEGRQGPPGPPGPPGPPSFPGPHRQTISVPGPPGPPGPPGPPGTMGASSGVRLWATRQAMLGQVHEVPEGWLIFVAEQEELYVRVQNGFRKVQLEARTPLPRGTDNEVAALQPPVVQLHDSNPYPRREHPHPTARPWRADDILASPPRLPEPQPYPGAPHHSSYVHLRPARPTSPPAHSHRDFQPVLHLVALNSPLSGGMRGIRGADFQCFQQARAVGLAGTFRAFLSSRLQDLYSIVRRADRAAVPIVNLKDELLFPSWEALFSGSEGPLKPGARIFSFDGKDVLRHPTWPQKSVWHGSDPNGRRLTESYCETWRTEAPSATGQASSLLGGRLLGQSAASCHHAYIVLCIENSFMTASK
B7: Chemotaxis protein CheY, P0AE67 (parent)
chain: MADKELKFLVVDDFSTMRRIVRNLLKELGFNNVEEAEDGVDALNKLQAGGYGFVISDWNMPNMDGLELLKTIRADGAMSALPVLMVTAEAKKENIIAAAQAGASGYVVKPFTAATLEEKLNKIFEKLGM
B8: Endo-1,4-beta-xylanase 2, P36217 (parent)
chain: MVSFTSLLAGVAAISGVLAAPAAEVESVAVEKRQTIQPGTGYNNGYFYSYWNDGHGGVTYTNGPGGQFSVNWSNSGNFVGGKGWQPGTKNKVINFSGSYNPNGNSYLSVYGWSRNPLIEYYIVENFGTYNPSTGATKLGEVTSDGSVYDIYRTQRVNQPSIIGTATFYQYWSVRRNHRSSGSVNTANHFNAWAQQGLTLGTMDYQIVAVEGYFSSGSASITVS
B9: Holocytochrome-c synthase, P06182 (parent)
chain: MGWFWADQKTTGKDIGGAAVSSMSGCPVMHESSSSSPPSSECPVMQGDNDRINPLNNMPELAASKQPGQKMDLPVDRTISSIPKSPDSNEFWEYPSPQQMYNAMVRKGKIGGSGEVAEDAVESMVQVHNFLNEGCWQEVLEWEKPHTDESHVQPKLLKFMGKPGVLSPRARWMHLCGLLFPSHFSQELPFDRHDWIVLRGERKAEQQPPTFKEVRYVLDFYGGPDDENGMPTFHVDVRPALDSLDNAKDRMTRFLDRMISGPSSSSSAP

Variants of: B1
Settings: Bacillus amyloliquefaciens; pH 6.3; 25 °C; Urea; Fluorescence; MES 1 M; structure 1BNI; whole UniProt chain shown

Row | Variant | ddG of mutation (higher = less stable) | unfolding free energy
1 | H65A | 2.15 kcal/mol | 6.75 kcal/mol
2 | H65G | 0.89 kcal/mol | 8.01 kcal/mol

Same assay, conditions: Bacillus amyloliquefaciens; pH 6.3; 25 °C; Urea; Fluorescence; MES 50 mM; reversible: yes; structure 1BNI; whole UniProt chain shown

Row | Variant | ddG of mutation (higher = less stable)
3 | H65Q | 1.6 kcal/mol

Same assay, conditions: Bacillus amyloliquefaciens; pH 6.3; 25 °C; Urea; Fluorescence; MES 1.00 M; NaCl 613 mM; reversible: yes; structure 1BNI; whole UniProt chain shown

Row | Variant | ddG of mutation (higher = less stable)
4 | T63S Y64A | 2.39 kcal/mol

Same assay, conditions: Bacillus amyloliquefaciens; pH 6.3; 25 °C; Urea; Fluorescence; MES 10 mM; reversible: yes; structure 1BNI; whole UniProt chain shown

Row | Variant | ddG of mutation (higher = less stable) | denaturant m value | denaturant midpoint (higher = more stable) | unfolding free energy
5 | S75E | -0.61 kcal/mol | 1.99 kcal/mol/M | 4.74 M | 9.44 kcal/mol

Variants of: B2
Settings: Aspergillus oryzae (strain ATCC 42149 / RIB 40); pH 7; 25 °C; Thermal; CD; MOPS 30 mM; structure 1RN1; whole UniProt chain shown

Row | Variant | ddG of mutation (higher = less stable)
6 | D75H | -1.1 kcal/mol

Same assay, conditions: Aspergillus oryzae (strain ATCC 42149 / RIB 40); pH 7.4; 25 °C; Urea; Fluorescence; Sodium acetate 50 mM; reversible: yes; structure 1RN1; whole UniProt chain shown

Row | Variant | denaturant m value | denaturant midpoint (higher = more stable) | unfolding free energy
7 | A47G G49A | 1.37 kcal/mol/M | 4.7 M | 6 kcal/mol
8 | A47G | 1.3 kcal/mol/M | 5.5 M | 7.1 kcal/mol

Same assay, conditions: Aspergillus oryzae (strain ATCC 42149 / RIB 40); pH 5; 10 °C; GdnHCl; CD; Na acetate 0.1 M; structure 1RN1; whole UniProt chain shown

Row | Variant | denaturant m value | unfolding free energy
9 | S80G P81N | 2.8 kcal/mol/M | 11.2 kcal/mol

Same assay, conditions: Aspergillus oryzae (strain ATCC 42149 / RIB 40); pH 8; 15 °C; Urea; Absorbance; Tris-HCl 0.1 M; NaCl 2.8 M; structure 1RN1; whole UniProt chain shown

Row | Variant | unfolding free energy
10 | S80G P81N | 5.98 kcal/mol

Same assay, conditions: Aspergillus oryzae (strain ATCC 42149 / RIB 40); pH 8; 15 °C; Urea; CD; Tris-HCl 0.1 M; NaCl 2.5 M; structure 1RN1; whole UniProt chain shown

Row | Variant | unfolding free energy
11 | S80G P81N | 2.44 kcal/mol

Same assay, conditions: Aspergillus oryzae (strain ATCC 42149 / RIB 40); pH 7; Thermal; Absorbance; Sodium cacodylate 10 mM; reversible: yes; structure 1RN1; whole UniProt chain shown

Row | Variant | Tm | change of melting temperature, mutant - wild type (higher = more stable)
12 | W85Y | 53.4 °C | -4.2 °C
13 | Y71W W85Y | 53.1 °C | -4.5 °C
14 | Y71W | 56 °C | -1.6 °C

Same assay, conditions: Aspergillus oryzae (strain ATCC 42149 / RIB 40); pH 7; Thermal; Absorbance; Sodium cacodylate-D2O 100 mM; reversible: yes; structure 1RN1; whole UniProt chain shown

Row | Variant | Tm | change of melting temperature, mutant - wild type (higher = more stable)
15 | W85Y | 65 °C | 20 °C

Same assay, conditions: Aspergillus oryzae (strain ATCC 42149 / RIB 40); pH 7; 25 °C; Urea; Fluorescence; MOPS 30 mM; structure 1RN1; whole UniProt chain shown

Row | Variant | ddG of mutation (higher = less stable) | denaturant m value | denaturant midpoint (higher = more stable) | unfolding free energy
16 | Q51K | -0.77 kcal/mol | 1.21 kcal/mol/M | 5.3 M | 6.39 kcal/mol
17 | E84A | 0.9 kcal/mol | 1.2 kcal/mol/M | 3.92 M | 4.72 kcal/mol

Same assay, conditions: Aspergillus oryzae (strain ATCC 42149 / RIB 40); pH 7; 48.6 °C; Thermal; Fluorescence; MOPS 30 mM; structure 1RN1; whole UniProt chain shown

Row | Variant | ddG of mutation (higher = less stable)
18 | Q51K | -0.93 kcal/mol
19 | E84A | 0.78 kcal/mol
20 | Q51K E84A | -0.06 kcal/mol

Same assay, conditions: Aspergillus oryzae (strain ATCC 42149 / RIB 40); pH 7; Thermal; Fluorescence; MOPS 30 mM; structure 1RN1; whole UniProt chain shown

Row | Variant | Tm | change of melting temperature, mutant - wild type (higher = more stable) | unfolding enthalpy (van 't Hoff)
21 | Q51K | 51.7 °C | 3.4 °C | 107 kcal/mol
22 | Q51K E84A | 48.8 °C | -0.5 °C | 93 kcal/mol

Variants of: B3
Settings: Saccharomyces cerevisiae (strain ATCC 204508 / S288c); Thermal; Fluorescence; structure 1JK9; whole UniProt chain shown

Row | Variant | change of melting temperature, mutant - wild type (higher = more stable)
23 | G94A | 20 °C

Variants of: B4
Settings: Geobacillus stearothermophilus; pH 7.2; 25 °C; GdnHCl; Fluorescence; TEA 50 mM; reversible: no; structure 1PHP; whole UniProt chain shown

Row | Variant | unfolding free energy
24 | I217A L221A | 5.7 kcal/mol and 9.6 kcal/mol

Variants of: B5
Settings: Enterobacteria phage fd; pH 7; 25 °C; GdnHCl; CD; MOPS 50 mM; NaCl 100 mM; reversible: yes; structure 1VQB; whole UniProt chain shown

Row | Variant | unfolding free energy
25 | K24V | 0.8 kcal/mol
26 | T62V | 1.3 kcal/mol
27 | L32W | 2.8 kcal/mol
28 | T48V | 0 kcal/mol
29 | E30M | 0.6 kcal/mol
30 | K69M | 0.1 kcal/mol

Variants of: B6
Settings: Homo sapiens; pH 7.4; 20 °C; GdnHCl; Fluorescence; Tris-HCl 5 mM; structure 1BNL; whole UniProt chain shown

Row | Variant | denaturant m value | denaturant midpoint (higher = more stable) | unfolding free energy
31 | D1647A | 2.86 kcal/mol/M and 1.57 kcal/mol/M | 1.79 M | 5.12 kcal/mol and 2.82 kcal/mol

Variants of: B7
Settings: Escherichia coli (strain K12); pH 7; 25 °C; Urea; Fluorescence; Cacodylate 100 mM; structure 1CEY; whole UniProt chain shown

Row | Variant | ddG of mutation (higher = less stable) | unfolding free energy
32 | D57A | -3.3 kcal/mol | 8.9 kcal/mol
33 | D12A | -2.5 kcal/mol | 8.1 kcal/mol
34 | D13A | -2.7 kcal/mol | 8.3 kcal/mol

Variants of: B8
Settings: Hypocrea jecorina (strain ATCC 56765 / BCRC 32924 / NRRL 11460 / Rut C-30); pH 5; Thermal; DSC; citrate - phosphate buffer 50 mM; structure 1ENX; whole UniProt chain shown

Row | Variant | Tm | change of melting temperature, mutant - wild type (higher = more stable)
35 | T35C T61C K91R | 72.5 °C | 11.1 °C

Variants of: B9
Settings: Saccharomyces cerevisiae (strain ATCC 204508 / S288c); pH 6; Thermal; Absorbance; Sodium phosphate 100 mM; reversible: yes; whole UniProt chain shown

Row | Variant | Tm | change of melting temperature, mutant - wild type (higher = more stable) | heat capacity change of unfolding | unfolding enthalpy (van 't Hoff)
36 | N57I | 63.7 °C | 17.2 °C | 2 kcal/mol/K | 109 kcal/mol
